Key:
[1] = target: T1, mouse GPNMB endogenously expressed on B16F10 cells (mouse, UniProt Q99P91 23-574); assay: FACS, B16F10 cells
T1 construct: whole, on cells; also called moGPNMB
T1 sequence (looked up): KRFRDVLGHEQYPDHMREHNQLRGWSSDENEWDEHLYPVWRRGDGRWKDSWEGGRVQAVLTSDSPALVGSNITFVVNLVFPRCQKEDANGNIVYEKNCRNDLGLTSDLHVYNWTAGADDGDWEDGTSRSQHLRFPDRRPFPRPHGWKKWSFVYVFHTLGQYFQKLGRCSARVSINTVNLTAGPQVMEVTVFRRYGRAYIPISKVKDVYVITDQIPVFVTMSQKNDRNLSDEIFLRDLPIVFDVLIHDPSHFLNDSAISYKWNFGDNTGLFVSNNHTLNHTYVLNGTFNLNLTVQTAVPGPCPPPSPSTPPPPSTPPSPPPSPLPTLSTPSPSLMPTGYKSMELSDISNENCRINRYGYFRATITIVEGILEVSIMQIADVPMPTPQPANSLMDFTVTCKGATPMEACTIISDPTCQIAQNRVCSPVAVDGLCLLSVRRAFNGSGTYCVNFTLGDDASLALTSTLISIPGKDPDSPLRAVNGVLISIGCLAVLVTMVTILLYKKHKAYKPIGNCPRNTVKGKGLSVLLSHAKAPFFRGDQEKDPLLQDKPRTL
Description: Recombinant anti-GPNMB antibodies of the present disclosure were examined for their ability to bind human and/or mouse GPNMB expressed on Freestyle293-huGPNMB+ or B16F10 cells, respectively. B16F10 cells are a murine melanoma cell line from a C57BL/6J mouse that endogenously express high levels of mouse GPNMB. The antibodies were also tested for their ability to bind to a human macrophage cell line (U937 cells) engineered to express human GPNMB. Cells were harvested, plated at 100,000 cells/well in a 96-well round bottom plate, and incubated in 100 μl FACS buffer (PBS containing 2% FBS, 2 mM EDTA) containing anti-GPNMB monoclonal antibodies of the present disclosure for 30 minutes on ice. Cells were then washed and incubated in 100 ul FACS buffer containing 1 μg/ml APC-conjugated anti-human IgG secondary antibody for 30 minutes in ice. Cells were washed twice in cold FACS buffer and acquired on a BD FACS Canto. Data analysis and calculation of MFI values was performed with FlowJo (TreeStar) software version 10.0.7. […]

[2] = target: T2, soluble mouse GPNMB-Fc polypeptide (mouse IgG2A Fc) (mouse, UniProt Q99P91 23-502); assay: FACS, enhancing of moGPNMB-Fc binding to SVEC4-10 cells
T2 construct: extracellular domain; bought (R&D System); also called moGPNMB-Fc; mGPNMB-Fc; not shown: Fc region of mouse IgG2A
T2 sequence (looked up): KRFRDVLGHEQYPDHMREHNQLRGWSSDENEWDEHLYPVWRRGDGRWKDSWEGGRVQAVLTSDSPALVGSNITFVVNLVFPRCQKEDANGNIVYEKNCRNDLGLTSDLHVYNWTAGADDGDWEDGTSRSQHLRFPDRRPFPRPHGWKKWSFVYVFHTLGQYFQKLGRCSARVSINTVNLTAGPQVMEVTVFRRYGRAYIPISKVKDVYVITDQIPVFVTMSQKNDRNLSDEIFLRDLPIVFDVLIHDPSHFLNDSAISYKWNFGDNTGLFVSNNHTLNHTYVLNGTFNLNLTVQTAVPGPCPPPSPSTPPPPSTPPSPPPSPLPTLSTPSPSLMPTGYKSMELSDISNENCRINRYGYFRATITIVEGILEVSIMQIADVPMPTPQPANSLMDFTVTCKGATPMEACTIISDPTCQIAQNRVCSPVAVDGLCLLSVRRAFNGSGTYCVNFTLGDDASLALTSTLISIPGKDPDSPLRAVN
Description: Purified full-length anti-GPNMB antibodies of the present disclosure were evaluated for their ability to block binding of moGPNMB-Fc to SVEC4-10 cells to determine the ligand blocking potency of each anti-GPNMB monoclonal antibody. Briefly, 2 μg/mL moGPNMB-Fc (mouse IgG2A Fc) diluted in binding buffer was pre-complexed with increasing concentrations of anti-GPNMB antibody of the present disclosure or human IgG1 isotype control antibody in 96-well plates. Subsequently, 100,000 SVEC4-10 cells were added per well and incubated on ice for 30 minutes. Soluble moGPNMB-Fc bound to cell surface was detected with fluorescent anti-mouse IgG2A secondary antibody and measured on FACSCanto. (FIG. 5A and FIG. 5B) IC50 values (for antibodies that block moGPNMB-Fc cell binding) and EC50 values (for antibodies that enhance moGPNMB-Fc cell binding) based on changes in MFI values were calculated (average+standard error) for each anti-GPNMB antibody and listed in Table 6. In Table 6, NA indicates no activity. […] In all cases, certain anti-GPNMB antibodies of the present disclosure blocked soluble GPNMB binding to cells, while other anti-GPNMB antibodies of the present disclosure enhanced soluble GPNMB binding to cells.

[3] = target: T1, mouse GPNMB endogenously expressed on …; assay: FACS titration, B16F10 cells
Description: Cell-based binding measurements were also performed to measure the apparent affinities of anti-GPNMB antibodies of the present disclosure to cell-surface expressed GPNMB. Serial dilutions of the monoclonal anti-GPNMB antibodies were added to 100,000 Freestyle293-huGPNMB+ or B16F10 cells and allowed to achieve binding equilibrium at 4° C. After addition of fluorescently labeled secondary antibody and brief washing steps, MFI values as a function of titrated antibody concentration was recorded via FACS analysis. Curves were fit using nonlinear regression analysis with Graphpad Prism 6 software.

[4] = target: T3, soluble mouse GPNMB (recombinant extracellular domain) (mouse, UniProt Q99P91 23-502); assay: SPR Carterra, Ab immobilized
T3 construct: also called moGPNMB; not shown: C-terminal polyhistidine or Avi-His tag
T3 sequence: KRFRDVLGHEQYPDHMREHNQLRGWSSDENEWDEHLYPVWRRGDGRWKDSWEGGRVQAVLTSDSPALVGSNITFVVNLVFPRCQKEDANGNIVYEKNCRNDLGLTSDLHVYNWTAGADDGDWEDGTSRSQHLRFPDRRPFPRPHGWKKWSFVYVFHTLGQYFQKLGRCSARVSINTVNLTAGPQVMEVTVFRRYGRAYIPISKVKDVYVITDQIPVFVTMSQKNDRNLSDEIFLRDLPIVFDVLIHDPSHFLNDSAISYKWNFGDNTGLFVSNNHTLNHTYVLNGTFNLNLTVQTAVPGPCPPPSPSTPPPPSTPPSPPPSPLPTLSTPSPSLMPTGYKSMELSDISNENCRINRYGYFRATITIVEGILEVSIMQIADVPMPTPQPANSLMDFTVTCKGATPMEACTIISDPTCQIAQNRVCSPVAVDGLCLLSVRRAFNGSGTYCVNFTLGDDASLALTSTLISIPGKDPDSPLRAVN
Description: Binding kinetics of human anti-GPNMB IgG1 antibodies of the present disclosure to human, cynomolgus, and mouse GPNMB were evaluated using a Carterra LSA instrument (Carterra, Salt Lake City, UT). […] A HC200M sensor chip (Carterra) was activated using the single channel flow cell with a 7-minute injection of a 1:1:1 mixture of 100 mM MES pH 5.5, 100 mM sulfo-NHS, 400 mM EDC (all reconstituted in MES pH 5.5; 100 μl of each mixed in vial immediately before running assay). After switching to the multi-channel array flow cell, the antibodies were injected over the activated chip in a 96-spot array for 15 minutes. The remaining unconjugated active groups on the chip were then blocked by injecting 1M Ethanolamine pH 8.5 (Carterra) for 7 minutes using the single channel flow cell.
After priming with running buffer (HBS-EP+, Teknova) with 0.5 mg/ml BSA (Sigma), the immobilized anti-GPNMB antibodies were tested for their ability to bind to several forms of recombinant GPNMB extracellular domain, including human, cynomolgus, and mouse orthologs as described above. Estimates of affinity were generated by injecting each analyte over the entire antibody array using the single channel flow cell. GPNMB analytes were diluted to 2.5, 7.4, 22, 67, 200, and 600 nM in running buffer, and injected in serial from lowest to highest concentration without regeneration. Two buffer blanks were run between each series (one species per series). Data were processed and analyzed using Kinetics high-throughput kinetics analysis software (Carterra).

B1: anti-GPNMB antibody GPN-33 (antibody, human IgG1, V domains shown)
VH: EVQLVESGGSLVQPGGSLKLSCVASGYTFSNYWMDWVRQTPGKSLEWIGEINTDGSKTNYAPSIKDRFTISRDNAKSTLYLQMSNVKADDTAIYYCTRGPGAWGQGTSVTVSS
VL: DIVMTQTPLSLSVAIGQSASISCKSSQSLKFSDGKTYLNWVFQSPGQSPKRLIYQVSKLDSGVPDRFSGTGSETDFILKISRVEAEDLGVYYCCQGSYSPWTIGGGTKLELK
notes: chimeric
[1]
  MFI fold over background: 20.9 fold
[2]
  EC50: 0.79 nM
[3]
  EC50: 17.8 nM
[4]
  Kd: < 0.3 nM
  koff: < 1e-05 s⁻¹
  kon: 40000 M⁻¹ s⁻¹

Reference: patent US20250270343A1 (Alector, published 2025)
